{"source": "patent US7521540B2", "about": "“CYR61 compositions and methods” (Munin Corporation, priority 1996, dated 2009)", "molecules": {"B1": {"name": "Cyr61: Cysteine-rich ECM signaling protein; murine sequence SEQ ID NO:2, recombinant from Baculovirus-infected Sf9 cells (protein, listed as Mus musculus)", "chain": "MSSSTFRTLAVAVTLLHLTRLALSTCPAACHCPLEAPKCAPGVGLVRDGCGCCKVCAKQLNEDCSKTQPCDHTKGLECNFGASSTALKGICRAQSEGRPCEYNSRIYQNGESFQPNCKHQCTCIDGAVGCIPLCPQELSLPNLGCPNPRLVKVSGQCCEEWVCDEDSIKDSLDDQDDLLGLDASEVELTRNNELIAIGKGSSLKRLPVFGTEPRVLFNPLHAHGQKCIVQTTSWSQCSKSCGTGISTRVTNDNPECRLVKETRICEVRPCGQPVYSSLKKGKKCSKTKKSPEPVRFTYAGCSSVKKYRPKYCGSCVDGRCCTPLQTRTVKMRFRCEDGEMFSKNVMMIQSCKCNYNCPHPNEASFRLYSLFNDIHKFRD"}}, "key": {"NIH 3T3 cells": {"test_system": "NIH 3T3 cells", "experiment": "Fibroblast chemotaxis, modified Boyden chamber", "format": "cell-based, mouse", "text": "Cyr61 also affects chondrocytes, e.g., […] involved in skeletal development. In particular, Cyr61 influences the development, and perhaps maintenance, of cartilage, in contrast to the variety of growth-related proteins that exclusively influence development and maintenance of the bony skeleton. The chemotactic response of NIH 3T3 cells to murine Cyr61 was examined using a modified Boyden chamber (Neuroprobe Inc., catalog no. AP48). Grotendorst, Meth. Enzymol. 147:144-152 (1987). Purified Cyr61 protein was serially diluted in DMEM containing bovine serum albumin (BSA; 0.2 mg/ml) and added to the lower well of the chamber. The lower well was then covered with a collagen-coated polycarbonate filter (8 μm pore diameter; Nucleopore Corp., Pleasanton, Calif.). Cells (6×10^4) were then loaded into the upper well. After 5 hours incubation (10% CO2, 37° C.), the filter was removed and the cells were fixed and stained using Wright-Giemsa stain (Harleco formulation; EM Diagnostic Systems, Gibbstown, N.J.). Cells from the upper surface of the filter were then removed by wiping with a tissue swab. The chemotactic response was determined by counting the total number of migrating cells detected in ten randomly selected high-power microscopic fields (400-fold magnification) on the lower surface of the filter. Duplicate trials were performed for each experiment and the experiment was repeated three times to ensure reproducibility of the data."}, "HUVE cells": {"test_system": "HUVE cells", "experiment": "Gel matrix invasion and tube formation", "format": "cell-based, human", "conditions": "collagen or fibrin gels", "description": "The end product of in vitro angiogenesis is a well-defined network of capillary-like tubes. When cultured on gel matrices, e.g., collagen, fibrin, or Matrigel gels, endothelial cells must first invade the matrix before forming mature vessels.\nIn some wells, Cyr61 was mixed into the gel matrix before gelation (final concentration 10 μg/ml), while in other wells, Cyr61 was not in the gel matrix but was added as part of the nutrient medium (similar range of concentrations as in the matrix) after the cells reached confluency. HUVE cells were seeded onto the gel matrix surface at 5×10^4 cells per well in Ham's F12K medium [GIBCO-BRL, Inc.] containing 10% fetal bovine serum, 100 μg/ml heparin, and 30 μg/ml endothelial cell growth factor. When the cells reached confluency, the medium was removed, the cells were rinsed with PBS, and fresh medium without endothelial cell growth factor was supplied. Some cultures received purified recombinant Cyr61, while others received Cyr61 and polyclonal anti-Cyr61 antibodies. […]\nInvasion of the gel matrix was quantified about 4-7 days after treatment of the confluent cultures. […] Invasion was quantified by measuring the total length of all cell cords that penetrated beneath the surface monolayer. Results were expressed as the mean length in microns per field for at least 3 randomly selected fields from each of at least 3 separate experiments. […]"}, "[1]": {"test_system": "1064SK primary human foreskin fibroblasts", "experiment": "Fibroblast adhesion assay (methylene blue, A620)", "format": "cell-based", "description": "The ability of Cyr61 to mediate cell adhesion in normal fibroblasts was investigated. Microtiter wells were coated with purified recombinant Cyr61 protein, and 1064SK primary human foreskin fibroblasts were allowed to adhere under serum-free conditions. […] 50 μl cell suspensions were plated on microtiter wells coated with varying concentrations (0.5-5.0 μg/ml) of Cyr61 protein. After incubation at 37° C. for 30 minutes, adherent cells were fixed and stained with methylene blue.\nIn another experiment, microtiter wells were coated with either BSA, Cyr61 (2 μg/ml), or vitronectin (VN; 0.5 μg/ml) and blocked with affinity-purified anti-Cyr61 antibodies for one hour at 37° C. before 1064SK cells were plated.\nThe effects of divalent cations in cell adhesion to Cyr61 was also investigated. […] Data are means from triplicate determinations. […] Inhibition by Ca^2+ is characteristic of adhesion through some members of the β1 family of integrins, including receptors that bind type I collagen, laminin, and vitronectin (integrins α2β1, α6β1, and αVβ1) in fibroblasts, as well as the lymphocyte-specific integrin αLβ2.\nThe effects of RGD peptides on Cyr61-mediated fibroblast binding was tested by plating cells in wells coated with Cyr61 (2 μg/ml). Type I collagen (2 μg/ml) or vitronectin (0.5 μg/ml), 2 mM GRGDSP or GRGESP peptide was then added.\nCells were also pre-incubated with 40 μg/ml monoclonal antibodies against the integrin α5 or the integrin αV subunits at room temperature for 30 minutes, then plated on wells coated with Cyr61 (2 μg/ml), vitronectin (0.5 μg/ml) or fibronectin (FN, 1 μg/ml). […] The data are means, representative of three experiments.\nThe 1064 SK cells were also analyzed using the monoclonal antibody JBIA, which binds the β1 integrin subunit. Cells were pre-incubated with the antibody (50 μg/ml) before plating on microtiter wells coated with Cyr61 (2 μg/ml), Type I collagen (2 μg/ml), or vitronectin (0.5 μg/ml). […] Data are means, representative of three experiments.\nTo identify the specific β1 integrin that mediates fibroblast adhesion to Cyr61, the inhibitory effects of function-blocking monoclonal antibodies were tested against various integrin α subunits. […] The data are means, representative of at least three experiments."}}, "data": [{"molecule": "B1", "values": [{"measurement": "optimal concentration for the chemotactic activity", "setting": "NIH 3T3 cells", "result": "1 to 5", "unit": "µg/mL"}, {"measurement": "migrating cells per high-power field", "setting": "NIH 3T3 cells; 0.5 μg/ml", "result": "about 5.2 cells"}, {"measurement": "average number of migrating cells detected per field", "setting": "NIH 3T3 cells; 1 μg/ml", "result": 7.5, "unit": "cells"}, {"measurement": "average number of migrating cells detected per field", "setting": "NIH 3T3 cells; 5 μg/ml", "result": 18.5, "unit": "cells"}, {"measurement": "average number of migrating cells detected per field", "setting": "NIH 3T3 cells; 10 μg/ml", "result": 18.7, "unit": "cells"}, {"measurement": "matrix invasion and tube formation", "setting": "HUVE cells", "result": "induce matrix invasion and tube formation"}, {"measurement": "coating concentration at which maximal adhesion was reached", "setting": "[1]", "result": 1, "unit": "µg/mL"}, {"measurement": "inhibition by anti-α6 antibody of binding mediated by the coated protein", "setting": "[1]; anti-α6 20 μg/ml", "result": 78, "unit": "%"}, {"measurement": "1064SK adhesion, absorbance", "setting": "[1]; coating 0.5 μg/ml", "result": "about 0.3 A620"}, {"measurement": "1064SK adhesion, absorbance", "setting": "[1]; coating 1-5 μg/ml", "result": "0.45-0.55 A620"}, {"measurement": "support of 1064SK fibroblast adhesion", "setting": "[1]; protein coated on wells", "result": "dose-dependent and saturable"}]}]}
